T1: His-tagged CEACAM1 (human, UniProt P13688 35-428)
T1 construct: 45 kDa SPR analyte; also called CEACAM1-HIS; CEACAM1 analyte
T1 sequence: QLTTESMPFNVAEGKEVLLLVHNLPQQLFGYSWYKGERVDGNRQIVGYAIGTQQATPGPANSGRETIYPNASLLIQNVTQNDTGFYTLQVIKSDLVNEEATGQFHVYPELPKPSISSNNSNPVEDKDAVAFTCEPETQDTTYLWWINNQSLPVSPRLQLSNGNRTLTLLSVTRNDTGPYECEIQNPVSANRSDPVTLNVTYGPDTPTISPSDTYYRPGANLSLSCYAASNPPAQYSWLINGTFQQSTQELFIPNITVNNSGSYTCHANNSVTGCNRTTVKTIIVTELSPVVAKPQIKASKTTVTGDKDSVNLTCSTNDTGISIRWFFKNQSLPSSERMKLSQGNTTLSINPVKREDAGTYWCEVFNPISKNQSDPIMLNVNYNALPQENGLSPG

T2: CEACAM8 on transfected HeLa cells (human, UniProt P31997 35-320)
T2 construct: whole, on cells; also called HeLa-CEACAM8; HeLa C8
T2 sequence (looked up): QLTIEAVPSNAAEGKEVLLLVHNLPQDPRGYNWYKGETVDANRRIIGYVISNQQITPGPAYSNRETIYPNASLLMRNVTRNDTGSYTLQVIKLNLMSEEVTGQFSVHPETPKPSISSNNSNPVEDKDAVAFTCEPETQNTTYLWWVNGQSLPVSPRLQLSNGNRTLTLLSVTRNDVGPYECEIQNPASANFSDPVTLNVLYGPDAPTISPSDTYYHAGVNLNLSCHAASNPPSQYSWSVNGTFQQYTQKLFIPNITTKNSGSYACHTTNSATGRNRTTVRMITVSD

T3: CEACAM3 on transfected HeLa cells (human, UniProt P40198 35-252)
T3 construct: whole, on cells; also called HeLa-CEACAM3; HeLa C3
T3 sequence (looked up): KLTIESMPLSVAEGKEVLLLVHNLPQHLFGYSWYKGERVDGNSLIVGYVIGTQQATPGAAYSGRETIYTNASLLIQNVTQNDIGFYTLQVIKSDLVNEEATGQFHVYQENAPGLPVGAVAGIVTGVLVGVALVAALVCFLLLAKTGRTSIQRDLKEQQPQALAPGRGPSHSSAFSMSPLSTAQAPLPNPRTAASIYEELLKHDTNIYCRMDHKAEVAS

T4: CEACAM6 on transfected HeLa cells (human, UniProt P40199 35-320)
T4 construct: whole, on cells; also called HeLa-CEACAM6; HeLa C6
T4 sequence (looked up): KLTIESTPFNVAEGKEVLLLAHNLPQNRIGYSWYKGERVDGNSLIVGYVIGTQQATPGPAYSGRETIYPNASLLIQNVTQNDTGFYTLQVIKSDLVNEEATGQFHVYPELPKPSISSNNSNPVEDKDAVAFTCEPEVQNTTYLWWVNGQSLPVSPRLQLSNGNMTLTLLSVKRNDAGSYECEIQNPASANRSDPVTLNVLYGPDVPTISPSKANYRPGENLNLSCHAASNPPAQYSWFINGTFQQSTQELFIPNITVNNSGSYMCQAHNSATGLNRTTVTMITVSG

T5: GST-CEACAM1 (human, UniProt P13688 35-141, limits assumed)
T5 construct: also called human CEACAM1-GST protein
T5 sequence: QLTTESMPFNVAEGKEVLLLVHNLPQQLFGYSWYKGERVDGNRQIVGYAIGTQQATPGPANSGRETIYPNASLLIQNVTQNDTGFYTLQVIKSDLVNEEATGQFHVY


Key:
[1] = molecular target: T1, His-tagged CEACAM1; assay: SPR single-cycle, IgG captured
How it was run: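 Biacore T200 single-cycle kinetics at 25° C in HBS-P+ (pH 7.4): antibodies (purified or HEK EBNA supernatant, 1 μg/ml) captured on Protein A to ~75 RU, His-tagged CEACAM1 analyte at 3.125–50 nM (5-point 2-fold) at 50 μl/min without regeneration. Reference channel Fc1 subtracted.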

[2] = molecular target: T2, CEACAM8 on transfected HeLa cells; assay: flow cytometry, transfected HeLa
How it was run: (§1)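 Flow cytometry on HeLa cells stably transfected with single CEACAM family members, cultured at 37° C, 5.0% CO₂ in DMEM with 10% fetal bovine serum. Cells were stained with test antibody, then a fluorochrome-conjugated isotype-specific secondary antibody, with DAPI as viability dye. Data were acquired on a Cytoflex and analysed in FlowJo. Binding selectivity is given as the staining of each transfectant.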

[3] = molecular target: T3, CEACAM3 on transfected HeLa cells; assay: flow cytometry, transfected HeLa
How it was run: as §1

[4] = molecular target: T1, His-tagged CEACAM1; assay: SPR multi-cycle, IgG captured
Method: As an alternative approach to assess the binding of the 36 antibody combinations and the three control antibodies to CEACAM1, a kinetic analysis was performed on a Biacore T200 (serial no. 1909913) running Biacore T200 Evaluation Software V2.0.1 (Uppsala, Sweden). All experiments were run at 25° C. with HBS-P+ running buffer (pH 7.4) (GE Healthcare, cat. no. BR100671). All kinetic experiments were performed using His-tagged CEACAM1 as the analyte. For all experiments, antibodies were immobilized onto a Series S Protein A sensor chip surface. For kinetic experiments, the amount of immobilized/captured ligand was limited to avoid mass transfer effects at the surface of the chip with the surface ideally having an analyte binding level (Rₘₐₓ) of 50-150 RUs. Using a MW of 45 kDa for the CEACAM1 analyte, 150 kDa for the antibody ligand (estimated value for IgG), 50 RU for Rmax and the stoichiometry (Sm) as 2 due to the ability of each antibody to bind 2 target molecules, a target response level of ˜75 RUs was set for capture of all the sample antibodies.
The signal from the reference channel Fc1 was subtracted from that of Fc2, Fc3 and Fc4 to correct for differences in non-specific binding to a reference surface, a global Rmax parameter was used in the 1-to-1 binding model. The relative Kp compared to […] was calculated by dividing the Kp of the humanized CEACAM antibody variants by that of the chimeric antibody VH0/Vκ0 on the same chip. A summary of the averaged relative Kp obtained for the 12 antibody combinations analyzed using multi cycle kinetics can be found in Table 5.

[5] = molecular target: T4, CEACAM6 on transfected HeLa cells; assay: flow cytometry, HeLa-CEACAM6 transfectants, % positive cells
Method: Binding selectivity for CEACAM1 was tested for the 24 humanized antibody variants that bound to CEACAM1 (see Table 3), as well as the chimeric control antibody VH0/Vκ0, by flow cytometry on HeLa cells transfected with CEACAM1, 3, 5, 6 and 8. […] There was no evidence of any staining of the HeLa-CEACAM3 or HeLa-CEACAM8 transfectants. […] Due to its favorable affinity to and selectivity for CEACAM1 as well as its favorable expression level, VH1/Vκ8 was chosen as the framework for affinity maturation.

[6] = molecular target: T5, GST-CEACAM1; assay: competition ELISA vs parental murine antibody
Method: The binding of the purified antibodies to human CEACAM1 was assessed in a competition ELISA assay. Nunc Immuno MaxiSorp 96 well flat bottom microtitre plates were pre-coated with 1 μg/ml of GST-CEACAM1 in 1×PBS, overnight at 4° C. The following day the plates were blocked for 1 hour at room temperature (“RT”) with 2% BSA/PBS before washing 3× with PBST pH 7.4. A 3-fold dilution series of the chimeric antibody chimeric antibody VH0/Vκ0, an irrelevant IgG4 antibody, and the humanized CEACAM1 antibodies from 100 μg/ml to 0.07 or 0.002 μg/ml were pre-mixed with a constant concentration of parental murine antibody (0.45 μg/ml final concentration), added to the plate and incubated for 1 hour at room temperature. Following 3×PBST washes, the binding of the parental murine CEACAM1 antibody was detected with an anti-mouse-HRP and TMB substrate. The reaction was stopped with 3 M HCl, absorbance read at 450 nm on a Dynex Technologies MRX TC II plate reader and the binding curves plotted. The binding of the humanized CEACAM antibody variants to CEACAM1 was compared to the chimeric antibody (VHO/Vκ0), which was included on each plate.

Binder | Kd [1] [nM] | relative KD to VH0/Vκ0 [1] | binding result [2] | binding result [3] | Kd [4] [nM] | average relative KD to VH0/Vκ0 [4] | koff [4] [s⁻¹] | kon [4] [M⁻¹ s⁻¹] | relative KD to VH0/Vκ0 [4] | binding result [5] | binding result [1] | binding result [6]
VH2/Vκ10 (antibody, IgG4, V domains shown, IgG4 (S241P), kappa) VH: EVQLLESGGGLVQPGGSLRLSCAASGFIFSSHGMSWVRQAPGKGLEWVATISSGGTYTYYPDSVKGRFTISRDNSKNTLYLQMNSLRAEDTAMYYCARHDFDYDAAWFAYWGQGTLVTVSS VL: EIVLTQSPATLSLSPGERATLSCRANSSVSYMYWYQQKPGQAPRPWIYLTSNRATGIPARFSGSGSGTDFTLTISSLEPEDFATYYCQQWSSNPPTFGQGTKLEIK | 131 | 3.2 | no binding | no binding | 61 | 2.1 | 0.0246 | 407000 | 2.1 | no binding | – | –
VH2/Vκ11 (antibody, IgG4, V domains shown, IgG4 (S241P), kappa) VH: EVQLLESGGGLVQPGGSLRLSCAASGFIFSSHGMSWVRQAPGKGLEWVATISSGGTYTYYPDSVKGRFTISRDNSKNTLYLQMNSLRAEDTAMYYCARHDFDYDAAWFAYWGQGTLVTVSS VL: EIVLTQSPATLSLSPGERATLSCRANSSVSYMYWYQQKPGQAPRPWIYLTSNRATGIPARFSGSGSGTDYTLTISSLEPEDFAVYYCQQWSSNPPTFGQGTKLEIK | 122 | 3 | no binding | no binding | 77 | 2.7 | 0.0289 | 375000 | 2.5 | no binding | – | –
VH2/Vκ12 (antibody, IgG4, V domains shown, IgG4 (S241P), kappa) VH: EVQLLESGGGLVQPGGSLRLSCAASGFIFSSHGMSWVRQAPGKGLEWVATISSGGTYTYYPDSVKGRFTISRDNSKNTLYLQMNSLRAEDTAMYYCARHDFDYDAAWFAYWGQGTLVTVSS VL: EIVLTQSPATLSLSPGERATLSCRANSSVSYMYWYQQKPGQAPRPLIYLTSNRATGIPARFSGSGSGTDYTLTISSLEPEDFATYYCQQWSSNPPTFGQGTKLEIK | 145 | 3.5 | no binding | no binding | 152 | 2.7 | 0.0458 | 302000 | 2.7 | no binding | – | –
VH4/Vκ3 (antibody, IgG4, V domains shown, IgG4 (S241P), kappa) VH: EVQLLESGGGLVQPGGSLRLSCAASGFIFSSHGMSWVRQAPGKGLEWVSTISSGGTYTYYADSVKGRFTISRDNSKNTLYLQMNSLRAEDTAVYYCARHDFDYDAAWFAYWGQGTLVTVSS VL: EIVLTQSPATLSLSPGERATLSCRANSSVSYMAWYQQKPGQAPRPWIYLTSNRATGVPARFSGSGSGTDYTLTISSLEPEDFATYYCQQWSSNPPTFGQGTKLEIK | – | – | – | – | – | – | – | – | – | – | no binding (tested: 50 nM) | no binding (tested: 100 µg/ml)
VH4/Vκ5 (antibody, IgG4, V domains shown, IgG4 (S241P), kappa) VH: EVQLLESGGGLVQPGGSLRLSCAASGFIFSSHGMSWVRQAPGKGLEWVSTISSGGTYTYYADSVKGRFTISRDNSKNTLYLQMNSLRAEDTAVYYCARHDFDYDAAWFAYWGQGTLVTVSS VL: EIVLTQSPATLSLSPGERATLSCRANSSVSYMAWYQQKPGQAPRLLIYLTSNRATGIPARFSGSGSGTDFTLTISSLEPEDFAVYYCQQWSSNPPTFGQGTKLEIK | – | – | – | – | – | – | – | – | – | – | no binding (tested: 50 nM) | no binding (tested: 100 µg/ml)
VH2/Vκ3 (antibody, IgG4, V domains shown, IgG4 (S241P), kappa) VH: EVQLLESGGGLVQPGGSLRLSCAASGFIFSSHGMSWVRQAPGKGLEWVATISSGGTYTYYPDSVKGRFTISRDNSKNTLYLQMNSLRAEDTAMYYCARHDFDYDAAWFAYWGQGTLVTVSS VL: EIVLTQSPATLSLSPGERATLSCRANSSVSYMAWYQQKPGQAPRPWIYLTSNRATGVPARFSGSGSGTDYTLTISSLEPEDFATYYCQQWSSNPPTFGQGTKLEIK | – | – | – | – | – | – | – | – | – | – | – | no binding (tested: 100 µg/ml)
VH2/Vκ5 (antibody, IgG4, V domains shown, IgG4 (S241P), kappa) VH: EVQLLESGGGLVQPGGSLRLSCAASGFIFSSHGMSWVRQAPGKGLEWVATISSGGTYTYYPDSVKGRFTISRDNSKNTLYLQMNSLRAEDTAMYYCARHDFDYDAAWFAYWGQGTLVTVSS VL: EIVLTQSPATLSLSPGERATLSCRANSSVSYMAWYQQKPGQAPRLLIYLTSNRATGIPARFSGSGSGTDFTLTISSLEPEDFAVYYCQQWSSNPPTFGQGTKLEIK | – | – | – | – | – | – | – | – | – | – | no binding (tested: 50 nM) | no binding (tested: 100 µg/ml)

Source: patent US20250074980A1 (BRIGHAM AND WOMEN S HOSPITAL, published 2025)
